Laboratory results: US20250090676A1 (SUTRO BIOPHARMA, published 2025)

Columns and labels:
[1] = biological target: T1, cynomolgus monkey folate receptor alpha (cynomolgus monkey, UniProt P15328 25-234 (human entry)); test: FACS, CHO-cFOLR1 cells
T1 construct: Expressed on the surface of stably transfected CHO cells; also called cyno FolR1; CHO-cyno FolR1
Experimental: CHO cells were transfected to stably express human (CHO-hFOLR1), cynomolgus (CHO-cFOLR1), or mouse (CHO-mFOLR1) target molecule FOLR1 on the cell surface. Parental CHO cells were used as a negative control to determine background binding levels. Parental CHO and stably transfected CHO-hFOLR1, CHO-cFOLR1, and CHO-mFOLR1 cells were cultured in Ham's F-12: high glucose DMEM (50:50) (Corning, Cellgro-Mediatech) supplemented with 10% heat-inactivated fetal bovine serum (Corning, Cellgro-Mediatech), 1% Penicillin/Streptomycin (Corning, Cellgro-Mediatech) and 2 mmol/L-glutamax (Life Technology).
A mixture of fluoresecent-labeled parental CHO cells and unlabeled CHO-hFOLRlcells were prepared as follows. Parental CHO cells were washed twice in PBS and incubated in PBS containing with 1 nM CellTrace™ Oregon Green488® (Life Technologies) at 37° C. for 30 minutes. Labeled parental CHO cells were then washed 2× with Ham's F-12 media and 2× with FACS buffer (PBS with 1% bovine serum albumin). Unlabeled CHO-hFOLR1 cells were similarly washed and prepared. Labeled parental CHO and unlabeled CHO-hFOLR1 cells were combined at 1:1 ratio and seeded at 50 μL per well (200,000 cells per well) in 96 well polypropylene plates. Cells were mixed with 50 μL of test antibodies (i.e., anti-FOLR1 variants) serially diluted in FACS buffer and incubated on ice for 60 mins. […] Data were analyzed using FlowJo® software (FlowJo, LLC; Ashland, OR) to determine mean fluorescence intensities. Binding constants were calculated using the statistical software, GraphPad Prism (GraphPad Software; La Jolla, CA) using the nonlinear regression equation, one site-specific binding with Hill slope. Secondary antibody alone was used as a control, in addition to measuring non-specific antibody binding to CHO parental cells.

[2] = biological target: T2, human folate receptor alpha (hFOLR1) (human, UniProt P15328 25-234); test: FACS, CHO-hFOLR1 cells;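 further: flow cytometry of serially diluted antibodies binding CHO cells stably expressing the receptor, 60 min on ice, mixed with dye-tagged parental CHO as background control, one-site specific fit with Hill slope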
T2 construct: endogenous on FOLR1-positive KB and Igrov1 cells (cell killing); also called human FolR1; FolRα
T2 sequence (P15328 25-234 limits assumed): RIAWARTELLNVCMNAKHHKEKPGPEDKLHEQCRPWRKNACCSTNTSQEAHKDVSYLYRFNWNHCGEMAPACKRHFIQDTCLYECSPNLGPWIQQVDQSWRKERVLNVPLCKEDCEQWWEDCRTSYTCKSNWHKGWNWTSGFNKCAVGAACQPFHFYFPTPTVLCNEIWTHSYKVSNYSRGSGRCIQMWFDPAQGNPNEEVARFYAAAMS

[3] = biological target: T3, murine folate receptor alpha (mouse, UniProt P35846 25-232); test: FACS, CHO-mFOLR1 cells;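 further: flow cytometry binding of serially diluted test antibodies to transfected CHO cells on ice, mean fluorescence intensity, parental CHO cells give background, Kd from one-site specific binding fit with Hill slope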
T3 construct: Expressed on the surface of stably transfected CHO cells; also called mouse FolR1; CHO-mouse FolR1
T3 sequence (P35846 25-232 limits assumed): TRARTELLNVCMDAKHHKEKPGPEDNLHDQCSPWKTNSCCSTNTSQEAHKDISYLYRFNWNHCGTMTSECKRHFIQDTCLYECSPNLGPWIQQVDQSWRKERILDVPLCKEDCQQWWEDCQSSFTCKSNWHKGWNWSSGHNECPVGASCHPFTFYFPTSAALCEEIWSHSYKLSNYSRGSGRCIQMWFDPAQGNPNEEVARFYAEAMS

[4] = biological target: T2, human folate receptor alpha (hFOLR1); test: cell-based or functional assay

T1 sequence (P15328 other isoform, or with tags, fused parts or gaps limits assumed): as the sequence (P15328 25-234 limits assumed) above, with I2T, W4R, R37K, Q117R, A146P, H171Y counted along it

Binder	Bmax (MFI) [1]	Kd [1]	Bmax (MFI) [2]	Kd [2]	Bmax (MFI) [3]	Kd [3]	Igrov, 2° Antibody Cell Killing, Nb-SC239: EC50 [4]	Igrov, 2° Antibody Cell Killing, Nb-SC239: Span [4]	KB, 2° Antibody Cell Killing, Nb-239: EC50 [4]	KB, 2° Antibody Cell Killing, Nb-239: Span [4]	binding result [3]
SRP1848-E07 (antibody, V domains shown, HC variant paired with trastuzumab LC, cell-free expressed, HIS- and FLAG-tagged; also called Antibody 36) VH: EVQLVESGGGLVQPGGSLRLSCAASGFNIRKSSIHWVRQAPGKGLEWVGEIFPYDGSTDYADNVKGRFTISADTSKNTAYLQMNSLRAEDTAVYYCARGAWSWRSGYGYYIDYWGQGTLVTVSS VL: not shown	20400 MFI	0.23 nM	27300 MFI	0.54 nM	11800 MFI	1.2 nM	0.013 nM	73%	0.059 nM	94%	
SRP1848-F01 (antibody, V domains shown, HC variant paired with trastuzumab LC, cell-free expressed, HIS- and FLAG-tagged; also called Antibody 37) VH: EVQLVESGGGLVQPGGSLRLSCAASGFNIRTYSIHWVRQAPGKGLEWVGSIFPNDGTTDYADSVKGRFTISADTSKNTAYLQMNSLRAEDTAVYYCARGSWAWRAGYSYYLDYWGQGTLVTVSS VL: not shown	21500 MFI	0.43 nM	25200 MFI	0.56 nM	3750 MFI	1.8 nM	0.018 nM	69%	0.047 nM	91%	
SRP1848-F11 (antibody, V domains shown, HC variant paired with trastuzumab LC, cell-free expressed, HIS- and FLAG-tagged; also called Antibody 46) VH: EVQLVESGGGLVQPGGSLRLSCAASGFNISNNYIHWVRQAPGKGLEWVGGITPIDGNTDYADSVKGRFTISADTSMNTAYLQMNSLRAEDTAVYYCARGSWYWRAGYGYYLDYWGQGALVTVSS VL: not shown	21800 MFI	0.47 nM	26800 MFI	0.75 nM	1760 MFI	4.6 nM	0.017 nM	70%	0.054 nM	91%	
SRP1848-F02 (antibody, V domains shown, HC variant paired with trastuzumab LC, cell-free expressed, HIS- and FLAG-tagged; also called Antibody 38) VH: EVQLVESGGGLVQPGGSLRLSCAASGFNIRTYSIHWVRQAPGKGLEWVGSIFPNDGTTDYADSVKGRLTISADTSKNTAYLQMNSLRAEDTAVYYCARGSWSWQAGYGYYLDYWGQGTLVTVSS VL: not shown	14900 MFI	0.19 nM	25700 MFI	0.62 nM	2740 MFI	2.6 nM	0.009 nM	54%	0.054 nM	92%	
SRP1848-F10 (antibody, V domains shown, HC variant paired with trastuzumab LC, cell-free expressed, HIS- and FLAG-tagged; also called Antibody 45) VH: EVQLVESGGGLVQPGGSLRLSCAASGFNISNNSIHWVRQAPGKGLEWVGSIFPNDGYTDYADSVKGRFTISADTSKNTAYLQMNSLRAEDTAVYYCARGSWFWRSGYGYYLDYWGQGTLVTVSS VL: not shown	20700 MFI	0.4 nM	25600 MFI	0.36 nM	1740 MFI	6.9 nM	0.009 nM	68%	0.038 nM	94%	
SRP1848-F06 (antibody, V domains shown, HC variant paired with trastuzumab LC, cell-free expressed, HIS- and FLAG-tagged; also called Antibody 41) VH: EVQLVESGGGLVQPGGSLRLSCAASGFNISLSYIHWVRQAPGKGLEWVGGISPIDGNTDYADSVKGRFTISADTSKNTAYLQMNSLRAEDTAVYYCARGFWAWRSGYGYYLDYWGQGTLVTVSS VL: not shown	26500 MFI	0.86 nM	25600 MFI	0.87 nM			0.032 nM	77%	0.066 nM	94%	no binding
SRP1848-G01 (antibody, V domains shown, HC variant paired with trastuzumab LC, cell-free expressed, HIS- and FLAG-tagged; also called Antibody 47) VH: EVQLVESGGGLVQPGGSLRLSCAASGFNISRHSIHWVRQAPGKGLEWVGWIAPNDGSTDYADSVKGRFTISADTSKNTAYLQMNSLRAEDTAVYYCARGSWAWRSGYSYFLDYWGQGTLVTVSS VL: not shown	20900 MFI	0.56 nM	27400 MFI	0.98 nM	1990 MFI	4.6 nM	0.022 nM	66%	0.07 nM	91%	
SRP1848-F05 (antibody, V domains shown, HC variant paired with trastuzumab LC, cell-free expressed, HIS- and FLAG-tagged; also called Antibody 40) VH: EVQLVESGGGLVQPGGSLRLSCAASGFNISKSSIHWVRQAPGKGLEWVGEIYPNDGSTDYADSVKGRFTISADTSKNTAYLQMNSLRAEDTAVYYCARGSWAWRSGYSYFLDYWGQGTLVTVSS VL: not shown	24700 MFI	0.61 nM	27200 MFI	0.72 nM	5100 MFI	18 nM	0.015 nM	74%	0.061 nM	94%	
SRP1848-F08 (antibody, V domains shown, HC variant paired with trastuzumab LC, cell-free expressed, HIS- and FLAG-tagged; also called Antibody 43) VH: EVQLVESGGGLVQPGGSLRLSCAAGGFNISNHSIHWVRQAPGKGVEWVGEIYPVDGITDYADSVKGRFTISADTSKNTAYLRMNSLRAEDTAVYYCARGSWYWQSGYSYYLDYWGQGTLVTVSS VL: not shown	21000 MFI	1.07 nM	26500 MFI	0.91 nM			0.024 nM	77%	0.061 nM	94%	no binding
SRP1848-F07 (antibody, V domains shown, HC variant paired with trastuzumab LC, cell-free expressed, HIS- and FLAG-tagged; also called Antibody 42) VH: EVQLVESGGGLVQPGGSLRLSCAASGFNISNHSIHWVRQAPGKGLEWVGEIYPNDGITDYADSVKGRFTISADTSKNTAYLQMNSLSAEDTAVYYCARGSWDWRSGYSYYLDYWGQGTLVTVSS VL: not shown	18700 MFI	0.56 nM	27400 MFI	0.58 nM	1390 MFI	8.8 nM	0.018 nM	71%	0.057 nM	92%	
SRP1848-H01 (antibody, V domains shown, HC variant paired with trastuzumab LC, cell-free expressed, HIS- and FLAG-tagged; also called Antibody 55) VH: EVQLVESGGGLVQPGGSLRLSCAASGFNIRTQSIHWVRQAPGKGLEWIGDIFPIDGITDYADSVKGRFTISADTSKNTAYLQMNSLRAEDTAVYYCARGSWSWPSGMDYYLDYWGQGTLVTVSS VL: not shown	17200 MFI	0.28 nM	27000 MFI	0.59 nM	3950 MFI	33.8 nM	0.016 nM	67%	0.049 nM	96%	
SRP1848-F09 (antibody, V domains shown, HC variant paired with trastuzumab LC, cell-free expressed, HIS- and FLAG-tagged; also called Antibody 44) VH: EVQLVESGGGLVQPGGSLRLSCAASGFNISNHYIHWVRQAPGKGLEWVGGISPLDGYTDYADSVKGRFTISADTSKNTAYLQMNSLRAEDTAVYYCARGAWSWRSGYGYYIDYWGQGTLVTVSS VL: not shown	24200 MFI	0.75 nM	23800 MFI	0.36 nM	1670 MFI	90.7 nM	0.05 nM	79%	0.056 nM	93%	
SRP1848-G03 (antibody, V domains shown, HC variant paired with trastuzumab LC, cell-free expressed, HIS- and FLAG-tagged; also called Antibody 48) VH: EVQLVESGGGLVQPGGSLRLSCAASGFNISTYYIHWVRQAPGKGLEWVGGITPSDGFTDYADSVKGRSTISADTSKNTAYLQMNSLRAEDTAVYYCARGSWSWPSGHGYFLDYWGQGTLVTVSS VL: not shown	19200 MFI	0.44 nM	26400 MFI	0.82 nM	2220 MFI	2.4 nM	0.021 nM	76%	0.064 nM	91%	
SRP1848-D03 (antibody, V domains shown, HC variant paired with trastuzumab LC, cell-free expressed, HIS- and FLAG-tagged; also called Antibody 25) VH: EVQLVESGGGVVQPGGSLRLSCAASGFNIRYFSIHWVRQAPGKGLEWVGDIFPNDGSTDYADSVKGRFTISADTSKNTAYLQMNSLRAEETAVYYCARGHWSWPSGYWYYLDYWGQGTLVTVSS VL: not shown	14100 MFI	0.58 nM	26000 MFI	1.9 nM	3170 MFI	9.5 nM	0.038 nM	76%		98%	
SRP1848-G04 (antibody, V domains shown, HC variant paired with trastuzumab LC, cell-free expressed, HIS- and FLAG-tagged; also called Antibody 49) VH: EVQLVESGGGLVQPGGSLRLSCAASGFNIHSTDIHWVRQAPGKGLEWVAYITPAGGATFYADSVKGRFTISADTSKNTAYLQMNSLRAEDTAVYYCARYPYWFAGYMDYWGQGTLVTVSS VL: not shown	12500 MFI	0.25 nM	25200 MFI	0.76 nM	2000 MFI	2.5 nM	0.016 nM	75%	0.051 nM	92%	
SRP1848-A02 (antibody, V domains shown, HC variant paired with trastuzumab LC, cell-free expressed, HIS- and FLAG-tagged; also called Antibody 2) VH: EVQLVESGGGLVQPGGSLRLSCAASGFNISGFRIHWVRQAPGKGLEWVAGIYPESGATYYADSVKGRFTISADTSKNTAYLQMNSLRAEDTAVYYCARHLYVWDWVLDHVLDYWGQGTLVTVSS VL: not shown	18500 MFI	0.5 nM	24700 MFI	0.64 nM	18600 MFI	2.4 nM	0.039 nM	71%	0.028 nM	94%	
